Columns and labels:
[1] = tested on: Grade 2 and Grade 3 advanced GEP-NET; assay: NETTER-2 Progression-Free Survival (PFS), central review using RECIST 1.1; assay type: in vivo, human; details: for Kaplan-Meier event-free estimates (95% CI): PFS
Method: The primary efficacy end-point is PFS as measured by objective tumor response, which is determined by RECIST criteria, Version 1.1 (Eisenhauer, et al., 2009). Tumor response will be assessed locally and centrally.
It is recommended that for each patient identical acquisition and reconstruction protocols be used at all time-points. Central, blinded, real-time IRC (Independent Review Committee) assessment will be conducted for determining progressive disease. Changes from randomization date will be assessed at week 16±1, week 24±1 and then every 12±1 weeks until the PFS primary analysis End-Point has been reached, then until Week 72 after randomization, unless the patient progresses or dies.
The primary endpoint of the study is progression-free survival (PFS), defined as the time from the date of randomization to the date of the first documented progression or death due to any cause. PFS will be assessed via central review according to RECIST 1.1.
The stratification will be based on following randomization stratification factors (grade: G2 vs. G3; and tumor origin: pNET vs other origin).
Analyses will be based on the FAS population according to the randomized treatment group and strata assigned at randomization. The PFS distribution will be estimated using the Kaplan-Meier method, and Kaplan-Meier curves, median and associated 95% confidence intervals will be presented for each treatment group. The hazard ratio for PFS will be calculated, along with its 95% confidence interval, from a stratified Cox model using the same stratification factors as for the log-rank test.

[2] = NETTER-2 deaths (Safety Set); assay type: in vivo, human
[3] = NETTER-2 worst post-baseline biochemistry abnormalities based on CTC grades (Safety Set); assay type: in vivo, human
Text: (§1) The laboratory assessments require that blood samples for hematology and blood chemistry, and a urine sample for urinalysis are taken. Laboratory assessments will be performed at the investigational site.
(§2) Blood tests performed 4 weeks after any treatment cannot serve as baseline values for the next treatment.
(§3) All laboratory data will be listed by treatment group, subject, and visit/time and if normal ranges are available abnormalities will be flagged. Summary statistics will be provided by treatment and visit/time. Shift tables using the low/normal/high/(low and high) classification will be used to compare baseline to the worst on-treatment value.
(§4) Grading of laboratory values will be assigned programmatically as per NCI Common Terminology Criteria for Adverse Events (CTCAE) version 5.0 or current version. The calculation of CTCAE grades will be based on the observed laboratory values only, clinical assessments will not be taken into account.
(§5) The following summaries will be generated separately for hematology, and biochemistry tests: • 1. Listing of all laboratory data with values flagged to show the corresponding CTCAE grades if applicable and the classifications relative to the laboratory normal ranges • 2. For laboratory tests where grades are defined by CTCAE, • 3. Worst post-baseline CTCAE grade (regardless of the baseline status). Each subject will be counted only once for the worst grade observed post-baseline. • 4. Shift tables using CTCAE grades to compare baseline to the worst on-treatment value • 5. For laboratory tests where grades are not defined by CTCAE, • 6. Shift tables using the low/normal/high/(low and high) classification to compare baseline to the worst on-treatment value.

[4] = NETTER-2 worst post-baseline hematology abnormalities based on CTC grades (Safety Set); assay type: in vivo, human
Text: as §1, §2, §3, §4, §5

[5] = in vivo; cited from earlier work
[6] = central review, RECIST 1.1, Full Analysis Set
[7] = All grades (CTCAE v5.0), randomized treatment period, Safety Set

C[C@@H](O)[C@H](NC(=O)[C@@H]1CSSC[C@H](NC(=O)[C@@H](Cc2ccccc2)NC(=O)CN2CCN(CC(=O)[O-])CCN(CC(=O)[O-])CCN(CC(=O)[O-])CC2)C(=O)N[C@@H](Cc2ccc(O)cc2)C(=O)N[C@H](Cc2c[nH]c3ccccc23)C(=O)N[C@@H](CCCCN)C(=O)N[C@@H]([C@@H](C)O)C(=O)N1)C(=O)O.[177Lu+3] [Lutathera, ^177Lu-DOTA^0-Tyr^3-Octreotate]
Kaplan-Meier event-free estimates (95% CI) ([1]; 4 months, Full Analysis Set): 95.8 (91.0, 98.1) %
Kaplan-Meier event-free estimates (95% CI) ([1]; 6 months, Full Analysis Set): 92.3 (86.6, 95.7) %
Kaplan-Meier event-free estimates (95% CI) ([1]; 9 months, Full Analysis Set): 85.6 (78.6, 90.5) %
Kaplan-Meier event-free estimates (95% CI) ([1]; 12 months, Full Analysis Set): 80.7 (72.9, 86.4) %
Kaplan-Meier event-free estimates (95% CI) ([1]; 15 months, Full Analysis Set): 71.0 (61.9, 78.3) %
Kaplan-Meier event-free estimates (95% CI) ([1]; 18 months, Full Analysis Set): 66.5 (56.9, 74.4) %
Kaplan-Meier event-free estimates (95% CI) ([1]; 24 months, Full Analysis Set): 49.8 (38.5, 60.1) %
Kaplan-Meier event-free estimates (95% CI) ([1]; 30 months, Full Analysis Set): 36.1 (22.3, 50.1) %
PFS Events ([1]; Full Analysis Set): 55 (36.4) n (%)
PFS events: Deaths ([1]; Full Analysis Set): 8 (5.3) n (%)
PFS events: Progression ([1]; Full Analysis Set): 47 (31.1) n (%)
estimated risk reduction (progression or death) ([1]; Lutathera arm compared to High-dose Octreotide arm): 72%
PFS 25th percentile (95% CI) [1, 6]: 14.1 (10.9, 17.0) months
PFS 75th percentile (95% CI) [1, 6]: NE (29.0, NE)
Number of Subjects who Died (Overall) ([2]; Safety Set): 32 (21.8) n (%)
Number of Subjects who Died (Overall), primary reason Adverse Event ([2]; Safety Set): 2 (1.4) n (%)
Number of Subjects who Died (Overall), primary reason Disease under Study ([2]; Safety Set): 30 (20.4) n (%)
Number of Subjects who Died on-treatment in randomized treatment period (within 30 days of last dose), primary reason Disease under Study ([2]; Safety Set): 2 (1.4) n (%)
Number of Subjects who Died on-treatment in re-treatment period (within 30 days of last dose) ([2]; Safety Set): 0 n (%)
Number of subjects who died in the post-treatment follow up period ([2]; Safety Set): 30 (20.4) n (%)
Number of subjects who died in the post-treatment follow up period, primary reason Adverse Event ([2]; Safety Set): 2 (1.4) n (%)
Number of subjects who died in the post-treatment follow up period, primary reason Disease under Study ([2]; Safety Set): 28 (19.0) n (%)
cause of death: adverse event ([2]; during the study): 1.4%
cause of death: disease under study ([2]; during the study): 20.4%
subjects died during the study ([2]; during the study): 21.8%
subjects died within 30 days after the last dose ([2]; randomized treatment period): 1.4%
Worst post-baseline abnormality: Bilirubin (umol/L)-Increase [3, 7]: 26 (17.7) n (%)
Worst post-baseline abnormality: Creatinine (umol/L)-Increase [3, 7]: 30 (20.4) n (%)
Worst post-baseline abnormality: Sodium (mmol/L)-Decrease [3, 7]: 32 (21.8) n (%)
Worst post-baseline abnormality: Gamma Glutamyl Transferase (U/L)-Increase ([3]; Grade 3/4 (CTCAE v5.0), randomized treatment period, Safety Set): 38 (25.9) n (%)
Grade 3/4 biochemical lab abnormality: aspartate aminotransferase increase ([3]; in vivo): 2.7%
Grade 3/4 biochemical lab abnormality: bilirubin increase ([3]; in vivo): 2.7%
Worst post-baseline abnormality: Alanine Aminotransferase (U/L)-Increase ([3]; in vivo): 6 (4.1) n (%)
Worst post-baseline abnormality: Bilirubin (umol/L)-Increase ([3]; in vivo): 4 (2.7) n (%)
Worst post-baseline abnormality: Creatinine (umol/L)-Increase ([3]; in vivo): 0 n (%)
Worst post-baseline abnormality: Gamma Glutamyl Transferase (U/L)-Increase ([3]; in vivo): 102 (69.4) n (%)
Worst post-baseline abnormality: Sodium (mmol/L)-Decrease ([3]; in vivo): 1 (0.7) n (%)
Grade 3/4 biochemical lab abnormality: GGT increase ([3]; randomized treatment period): 25.9%
Worst post-baseline abnormality: Neutrophils (10E9/L)-Decrease [4, 7]: 55 (37.4) n (%)
Grade 3/4 hematologic lab abnormality: lymphocytes decrease ([4]; in vivo): 38.1%
Worst post-baseline abnormality: Leukocytes (10E9/L)-Increase ([4]; in vivo): 0 n (%)
Worst post-baseline abnormality: Neutrophils (10E9/L)-Decrease ([4]; in vivo): 5 (3.4) n (%)
Clinically significant myelosuppression [5]: less than 10%
grade 3 or 4 lymphopenia [5]: 9%
grade 3 or 4 neutropenia [5]: 1%
grade 3 or 4 thrombocytopenia [5]: 2%
renal toxicities within the period of observation [5]: no evidence of renal toxicities

Reference: patent publication US20250099634A1, “METHOD OF TREATING CANCER” (Novartis AG, priority 2023, published 2025)
